Reference: paper PMC7048182

Target: V5-tagged LvpIgR expressed in HEK293T cells (Litopenaeus vannamei)

Substance: GST-tagged VP24 of WSSV (natural protein)
- WSSV infection rate of HEK293T cells transfected with LvpIgR, FITC-labelled WSSV preincubated with rPEN2; control preincubated with rTrx: 49.08%: 33.9%
